{"source": "paper PMC10540840", "about": "“PET imaging with [^68Ga]-labeled TGFβ-targeting peptide in a mouse PANC-1 tumor model” (Frontiers in Oncology, 2023)", "binders": {"B1": {"name": "[^68Ga]Ga-DOTA-P144 (peptide)", "peptide": "{DOTA-PEG (n : 3)}-TSLDASIWAMMQNA", "modifications": "also: [68Ga] chelated by the DOTA"}}, "molecular_target": "Transforming growth factor β (human (endogenous in PANC-1))", "sequence (P01137 279-390)": "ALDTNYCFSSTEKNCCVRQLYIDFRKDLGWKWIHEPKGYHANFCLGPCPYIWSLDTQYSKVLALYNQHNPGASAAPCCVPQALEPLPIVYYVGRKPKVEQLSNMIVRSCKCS", "note": "Ends that are not written are not given here. * marks the point of attachment. DOTA = O=C(O)CN1CCN(CC(=O)O)CCN(CC(=O)*)CCN(CC(=O)O)CC1; PEG (n : 3) = short polyethylene glycol linker, n = 3"}
{"binder": "B1", "values": [{"measurement": "tumor uptake (%ID/g-mean) of [^68Ga]Ga-P144 by microPET at 1 h in PANC-1 tumor-bearing mice, unblocked group (n = 4)", "result": 5.36, "unit": "%ID/g-mean"}]}
